Source: patent US20240368668A1, “SUBSTRATES AND BIOMARKERS OF ADAMTS7” (The Broad Institute, Inc., priority 2021, published 2024)
Square brackets hold non-standard residues; d marks the D form. Ends that are not written are not given here. Met(O) = CS(=O)CC[C@H](N)C(=O)O

Molecular target: T1, mouse ADAMTS7 (Mus musculus, UniProt Q68SA9)
T1 construct: Full-length mouse Adamts7 1-1857 (Uniprot Q68SA9, WT or E373Q catalytic mutant); expressed in transfected cells; host or cells: Human Coronary Artery Smooth Muscle Cells (HCA-SMC, Lonza), adenovirus 50 MOI
T1 sequence (Q68SA9 221-1657): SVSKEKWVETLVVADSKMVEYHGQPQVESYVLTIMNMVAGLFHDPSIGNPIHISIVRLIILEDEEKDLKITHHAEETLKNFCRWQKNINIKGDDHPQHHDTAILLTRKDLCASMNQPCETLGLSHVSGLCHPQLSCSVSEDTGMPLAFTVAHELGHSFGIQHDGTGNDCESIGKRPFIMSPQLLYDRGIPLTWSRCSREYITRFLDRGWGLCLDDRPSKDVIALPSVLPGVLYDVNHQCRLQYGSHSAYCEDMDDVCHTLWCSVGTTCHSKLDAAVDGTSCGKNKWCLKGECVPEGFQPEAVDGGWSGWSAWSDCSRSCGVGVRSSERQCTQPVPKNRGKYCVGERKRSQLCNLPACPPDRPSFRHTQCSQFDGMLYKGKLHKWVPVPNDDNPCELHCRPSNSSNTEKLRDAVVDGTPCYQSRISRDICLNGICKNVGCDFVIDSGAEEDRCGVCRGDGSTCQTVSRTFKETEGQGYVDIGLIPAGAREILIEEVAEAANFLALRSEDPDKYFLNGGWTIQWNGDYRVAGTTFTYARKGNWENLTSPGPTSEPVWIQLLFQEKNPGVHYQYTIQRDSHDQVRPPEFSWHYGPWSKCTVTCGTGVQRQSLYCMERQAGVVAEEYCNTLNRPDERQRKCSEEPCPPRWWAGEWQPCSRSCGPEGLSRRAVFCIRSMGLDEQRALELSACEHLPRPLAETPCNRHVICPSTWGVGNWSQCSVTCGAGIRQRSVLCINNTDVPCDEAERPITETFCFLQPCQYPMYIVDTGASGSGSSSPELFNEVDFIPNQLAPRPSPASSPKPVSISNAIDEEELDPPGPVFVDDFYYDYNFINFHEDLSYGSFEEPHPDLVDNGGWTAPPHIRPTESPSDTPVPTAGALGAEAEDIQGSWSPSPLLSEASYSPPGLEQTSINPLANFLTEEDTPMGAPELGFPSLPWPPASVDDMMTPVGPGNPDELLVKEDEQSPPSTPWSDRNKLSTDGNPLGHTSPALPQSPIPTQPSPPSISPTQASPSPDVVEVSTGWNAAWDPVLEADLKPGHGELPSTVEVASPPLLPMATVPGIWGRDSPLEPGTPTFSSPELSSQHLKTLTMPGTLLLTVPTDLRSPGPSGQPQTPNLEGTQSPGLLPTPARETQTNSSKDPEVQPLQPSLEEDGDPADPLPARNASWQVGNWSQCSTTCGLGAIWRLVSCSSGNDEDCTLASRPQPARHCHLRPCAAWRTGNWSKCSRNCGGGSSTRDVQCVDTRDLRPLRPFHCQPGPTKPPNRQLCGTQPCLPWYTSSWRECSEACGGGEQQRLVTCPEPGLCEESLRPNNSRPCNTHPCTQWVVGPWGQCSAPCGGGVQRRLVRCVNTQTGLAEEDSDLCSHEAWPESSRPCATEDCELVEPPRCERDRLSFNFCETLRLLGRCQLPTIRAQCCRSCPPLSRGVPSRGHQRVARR
Test: TMT10 TAILS N-terminomics, SMC2 experiment (process replicates, trypsin/AspN digest)
Type: cell-based
Details: for logFC.mWT.over.Luc: SMC2_TAILS HC; for logFC.mWT.over.Lux: ADAMTS7 WT over luciferase
Procedure, shortened: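 Full-length mouse ADAMTS7 (WT or E373Q mutant, C-terminal 3xFLAG) or luciferase was transduced via adenovirus, 50 MOI, into HCA-SMC (SMC1, SMC2) or HUVEC. SMC1: pooled media, technical triplicates 400 ug; SMC2: process triplicates 300 ug; HUVEC: process triplicates 200 ug, bFGF2 10 ng/ml.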

[1] = log fold change of N-terminal peptide, Ad-mADAMTS7 WT over Luc

Substance	logFC.mWT.over.Luc (log fold change, mWT over Luc)	logFC.mWT.over.Luc [1]	logFC.mWT.over.Lux (log fold change)
COL1A2_80 (QYDGKGVGLGPGPMGLMGPR; listed as Homo sapiens)	0.82		
COL1A2_630 (VGTAGPSGPSGLPGER; listed as Homo sapiens)	2.03		
COL1A2_866 (LLGAPGILGLPGSR; listed as Homo sapiens)	2.76		
LOXL1_218 (AVASAGVIYPYQPR; listed as Homo sapiens)		1.72	
LOXL2_45 (HQPQAPANVAKIQLR; listed as Homo sapiens)		2.62	
LTBP2_79 (VAGLQPVER; listed as Homo sapiens)		1.54	
LTBP2_502 (LVENSVETRPPPWLPASPGHSLW; listed as Homo sapiens)		2.66	
LTBP3_103 (LTGSGFR; listed as Homo sapiens)		4.80	
MAP4_815 (AVASTGPSSR; listed as Homo sapiens)		1.68	
MAP4_816 (VASTGPSSR; listed as Homo sapiens)		2.53	
MMP1_100 (FVLTEGNPR; listed as Homo sapiens)		2.35	
NBEA_1892 (LEKVAPLLR; listed as Homo sapiens)		2.04	
NID1_360 (FHQQHPQVI; listed as Homo sapiens)		2.47	
NID2_951 (YAYPGAR; listed as Homo sapiens)		2.73	
PLIN3_75 (VSGAQPILSKL; listed as Homo sapiens)		2.32	
PTPRF_1859 (MRYEGVVDMFQTVKTLR; listed as Homo sapiens)		2.51	
SERBP1_56 (QAAAQTNSNAAGKQLR; listed as Homo sapiens)			3.97
TNPO2_744 (VQ[Met(O)]VLNNLVEII[code n]RP[code n]TPKTLLE; listed as Homo sapiens)		4.08	
TNS1_236 (QEGLAGYQR; listed as Homo sapiens)		1.49	
TRGC2_86 (HRCIVRHENNK; listed as Homo sapiens)		3.16	
TTN_5975 (VKEPPVEFTKPL; listed as Homo sapiens)		3.15	
VIM_314 (QESTEYR; listed as Homo sapiens)		3.06	2.63
VIM_333 (LKGTNESLER; listed as Homo sapiens)		3.75	4.37

Now from value to substance:

logFC.mWT.over.Luc (log fold change, mWT over Luc)	logFC.mWT.over.Luc [1]	logFC.mWT.over.Lux (log fold change)	Substance
3.42			COL1A2_270 (VGNAGPAGPAGPR; listed as Homo sapiens)
1.60			COL1A2_305 (LTGAKGAAGLPGVAGAPGLPGPR; listed as Homo sapiens)
2.71			COL1A2_960 (AGAPGPHGPVGPAGKHGNR; listed as Homo sapiens)
1.73			COL1A2_1028 (LQGLPGIAGHHGDQGAPGSVGPAGPR; listed as Homo sapiens)
1.38			COL4A2_71 (YNGPPGLQGFPGLQGR; listed as Homo sapiens)
1.46			COL18A1_1505 (LQPPVVQLHDSNPYPR; listed as Homo sapiens)
	2.49		LTBP2_250 (SAAGEGTLAR; listed as Homo sapiens)
	2.94		LTBP2_290 (QHVGLSR; listed as Homo sapiens)
	1.51		LTBP3_208 (FLVPLGPGQISA; listed as Homo sapiens)
	1.08		MMP1_185 (FQPGPGIGG; listed as Homo sapiens)
	3.16		NID2_291 (HSSVPLGR; listed as Homo sapiens)
	2.47		PAK4_141 (HSEAGGGSG; listed as Homo sapiens)
	2.51		POSTN_727 (IITGPEIKYTR; listed as Homo sapiens)
	2.35		PPP1R18_295 (LSETLTR; listed as Homo sapiens)
	1.20		QSOX1_210 (HKGVAVR; listed as Homo sapiens)
	1.89		SHC2_267 (VAKDPINQRACHIL; listed as Homo sapiens)
	2.03		SPOCK1_27 (LAGGAGPNHGNFL; listed as Homo sapiens)
	3.71	4.23	SRGN_59 (LLPGESNKIPR; listed as Homo sapiens)
		4.65	THBS2_290 (LSENLKR; listed as Homo sapiens)
	3.22		VAT1_42 (AASPPLLR; listed as Homo sapiens)
